Results taken from patent publication US20250277023A1 (published 2025).

T1: TIGIT (on CHO-TIGIT cells) (UniProt Q495A1 22-244)
T1 chain: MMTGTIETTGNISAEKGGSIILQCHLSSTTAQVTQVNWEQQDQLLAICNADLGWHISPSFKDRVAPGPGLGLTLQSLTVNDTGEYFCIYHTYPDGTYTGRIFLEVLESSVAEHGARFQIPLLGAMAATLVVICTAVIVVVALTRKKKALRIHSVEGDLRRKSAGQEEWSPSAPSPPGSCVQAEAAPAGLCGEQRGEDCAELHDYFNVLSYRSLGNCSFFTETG

B1: R1262: TIGIT VH-IL2Rα mutant-Fc/TIGIT VL-IL2 mutant/PD-L1_VH-hIgG1/PD-L1 VL-κ-Ig LC (bispecific antibody)
chain 1: QVQLVQSGAEVKKPGSSVKVSCKASGYSFTSYWMNWVRQAPGQGLEWIGMIRPSDSETRLNQMFKDRVTITVDKSTSTAYMELSSLRSEDTAVYYCAGIHDYGHGAYWGQGTLVTVSSGGGGSGGGGSGGGGSGGGGCGELCDDDPPEIPHATFKAMAYKEGTMLNCECKRGFRRIKSGSLYMLCTGNSSHSSWDNQCQCTSSATRNTTKQVTPQPEEQKERKTTEMQSPMQPVDQASLPGHCREPPPWENEATERIYHFVVGQMVYYQCVQGYRALHRGPAESVCKMTHGKTRWTQPQLICTGEPKSSDKTHTCPPCPAPELLGGPSVFLFPPKPKDTLMISRTPEVTCVVVDVSHEDPEVKFNWYVDGVEVHNAKTKPREEQYNSTYRVVSVLTVLHQDWLNGKEYKCKVSNKALPAPIEKTISKAKGQPREPQVYTLPPSREEMTKNQVSLTCRVKGFYPSDIAVEWESNGQPENNYKTTPPVLKSDGSFFLASKLTVDKSRWQQGNVFSCSVMHEALHNHYTQKSLSLSPGK
chain 2: not shown
heavy: EVQLQESGPGLVKPSETLSLTCAVYGDSITSGYWNWIRKPPGKGLEYMGYISYTGSTYQNPSLKSRITFSRDTSKNQYYLKLSSVTAADTATYYCARSRAWIRTYFDYWGQGTLVTVSSASTKGPSVFPLAPSSKSTSGGTAALGCLVKDYFPEPVTVSWNSGALTSGVHTFPAVLQSSGLYSLSSVVTVPSSSLGTQTYICNVNHKPSNTKVDKRVEPKSCDKTHTCPPCPAPELLGGPSVFLFPPKPKDTLMISRTPEVTCVVVDVSHEDPEVKFNWYVDGVEVHNAKTKPREEQYNSTYRVVSVLTVLHQDWLNGKEYKCKVSNKALPAPIEKTISKAKGQPREPQVYTLPPSREEMTKNQVSLWCLVKGFYPSDIAVEWESNGQPENNYDTTPPVLDSDGSFFLYSDLTVDKSRWQQGNVFSCSVMHEALHNHYTQKSLSLSPGK
light: EIVLTQSPDFQSVTPKEKVTITCSVSSSISSSNLHWYQQKPDQSPKLLIYGTSNLASGVPSRFSGSGSGTDFTLTINSLEAEDAATYYCQQWSSYPLTFGQGTKLEIKRTVAAPSVFIFPPSDEQLKSGTASVVCLLNNFYPREAKVQWKVDNALQSGNSQESVTEQDSKDSTYSLSSTLTLSKADYEKHKVYACEVTHQGLSSPVTKSFNRGEC
B2: R1115: TIGIT_VH_IL2RA/TIGIT_VL_IL2/PD-L1-Fab (bispecific antibody)
chain 1: QVQLVQSGAEVKKPGSSVKVSCKASGYSFTSYWMNWVRQAPGQGLEWIGMIRPSDSETRLNQMFKDRVTITVDKSTSTAYMELSSLRSEDTAVYYCAGIHDYGHGAYWGQGTLVTVSSGGGGSGGGGSGGGGSGGGGSGELCDDDPPEIPHATFKAMAYKEGTMLNCECKRGFRRIKSGSLYMLCTGNSSHSSWDNQCQCTSSATRNTTKQVTPQPEEQKERKTTEMQSPMQPVDQASLPGHCREPPPWENEATERIYHFVVGQMVYYQCVQGYRALHRGPAESVCKMTHGKTRWTQPQLICTGEPKSSDKTHTCPPCPAPELLGGPSVFLFPPKPKDTLMISRTPEVTCVVVDVSHEDPEVKFNWYVDGVEVHNAKTKPREEQYNSTYRVVSVLTVLHQDWLNGKEYKCKVSNKALPAPIEKTISKAKGQPREPQVYTLPPSREEMTKNQVSLTCRVKGFYPSDIAVEWESNGQPENNYKTTPPVLKSDGSFFLASKLTVDKSRWQQGNVFSCSVMHEALHNHYTQKSLSLSPGK
chain 2: not shown
heavy: EVQLQESGPGLVKPSETLSLTCAVYGDSITSGYWNWIRKPPGKGLEYMGYISYTGSTYQNPSLKSRITFSRDTSKNQYYLKLSSVTAADTATYYCARSRAWIRTYFDYWGQGTLVTVSSASTKGPSVFPLAPSSKSTSGGTAALGCLVKDYFPEPVTVSWNSGALTSGVHTFPAVLQSSGLYSLSSVVTVPSSSLGTQTYICNVNHKPSNTKVDKRVEPKSCDKTHTCPPCPAPELLGGPSVFLFPPKPKDTLMISRTPEVTCVVVDVSHEDPEVKFNWYVDGVEVHNAKTKPREEQYNSTYRVVSVLTVLHQDWLNGKEYKCKVSNKALPAPIEKTISKAKGQPREPQVYTLPPSREEMTKNQVSLWCLVKGFYPSDIAVEWESNGQPENNYDTTPPVLDSDGSFFLYSDLTVDKSRWQQGNVFSCSVMHEALHNHYTQKSLSLSPGK
light: EIVLTQSPDFQSVTPKEKVTITCSVSSSISSSNLHWYQQKPDQSPKLLIYGTSNLASGVPSRFSGSGSGTDFTLTINSLEAEDAATYYCQQWSSYPLTFGQGTKLEIKRTVAAPSVFIFPPSDEQLKSGTASVVCLLNNFYPREAKVQWKVDNALQSGNSQESVTEQDSKDSTYSLSSTLTLSKADYEKHKVYACEVTHQGLSSPVTKSFNRGEC

What was measured:
[1] = target: T1, TIGIT (on CHO-TIGIT cells); assay: FACS blocking of PVR binding to CHO-Tigit; Fig. 27
[2] = target: T1, TIGIT (on CHO-TIGIT cells); assay: FACS binding; Fig. 20
[3] = target: T2, PD-L1 (on CHO-PD-L1 cells) (UniProt Q9NZQ7 19-290); assay: FACS binding; Fig. 26
[4] = target: T2, PD-L1 (on CHO-PD-L1 cells); assay: FACS binding; Fig. 22

T2 sequence (Q9NZQ7 19-290): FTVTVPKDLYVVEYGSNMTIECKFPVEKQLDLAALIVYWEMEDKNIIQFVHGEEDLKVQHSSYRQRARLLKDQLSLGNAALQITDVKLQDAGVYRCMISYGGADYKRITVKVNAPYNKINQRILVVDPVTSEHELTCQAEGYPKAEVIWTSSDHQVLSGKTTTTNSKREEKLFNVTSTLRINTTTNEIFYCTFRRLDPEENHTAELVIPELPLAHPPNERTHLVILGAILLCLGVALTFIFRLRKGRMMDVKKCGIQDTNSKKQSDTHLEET

Row | Binder | EC50 [1] | EC50 [2] | EC50 [3] | EC50 [4]
1 | B1 | 50.4 nM | 11.3 nM | 2.64 nM | 
2 | B2 | 336 nM | 15.7 nM | 3.11 nM | 3.72 nM
